Experimental findings from the DeepSol protein solubility set are described below.

The series can be described thus: soluble on expression in E. coli; label from the status in PepcDB or PDB records.
In the case of “MGSDKIHHHHHHMDITPFLNRTLDIPLYQQLYRYFKENMHRGRIQKGMKLPSKRLLANQLSISQTTVERAYEQLAAEGYIVSKPRSGWFADYHDSDFAYDRMPSTTPIQQEAEENKQWIDFHYGNVDSSYFPFSAWRKSMVNSLDQYGHELYRPGHVLGEFELRTLIAEYLYQSRGVHCGPEQVIIGAGNPILLQILCQVFEPNISIGYEDPGYPRARKIFEANRMNIVPIPVDDEGICIQKIKEQQPNLVYVTPSHQFTLGTIMTINRRIQLLKWAAENQSFIIEDDYDGEFRYTGQPVPSLQGLDQHNRVIYMGTFSKSLLPSLRISYMILPSPLLKKGHEITSLYKQTVSCHSQLTLAEFIKNGEWQKHINRMRKLYRKKRAIVLEAVQRELGEHVRIRGENSGLRILLDVYLPFGEKELIEKAKKHGVKIYPVSLSYQHHPPTKTVSLGFAGVSESDIREGIKKLKAAWKI”, the “soluble on expression in E. coli” value was “not soluble”.
Regarding “MGHHHHHHGGHMSLTSALPRPAPSPYARRKTALVIGAGFGGLALGIRLQSLGFDTTILERLDGPGGRAYQKRTPDGYVFDMGPTVLTVPHFIEELFALERDRAGLDAPDYPPEVLSGERVKEGVSGGPHTSRYVTLVPILPFYRIVFHDGTYFDYDGDPESTRRQIAELAPGDLAGYERFHADAEAIFRRGFLELGYTHFGDVPTMLRVVPDLLKLDAVRTLFSFTSKYFQSDKLRQVFSFETLLVGGNPLSVPAIYAMIHFVEKTWGIHYAMGGTGALVRGLVQKFEELGGAIRYGAGVDEVLVDGNLPGKRTARGVRLESGEELRADLVASNGDWANTYLKRVRPSARLVNSDLRVKAASESMSLLVVYFGFRGGDDLPLKHHNILLGPRYEALLSEIFGTKRLGEDFSQYLHVPTLTDPALAPAGHHAAYTLVPVPHNGSGIDWDVEGPKLAEAALADIERRGLIPGLRERLTHFEFITPDYFAGTLDSYLGNAFGPEPRLVQSAFFRPHNRSEDLHNFYLVGAGAQPGAGTPSVMMSAKMTARLIAEDFGIHADIREGGS”, the “soluble on expression in E. coli” value is “soluble”.
Turning to “MGSDKIHHHHHHMLQAQLKPANLVVTCNQTHSTMAQTDAPSTPAKPVIHAKQTAESGSSAQLRHLSRYLVRNLGMLNAAFGDLPLSPVQAHALFEIGKQPLTIKELACKLSIDKSNASRAIKHLIDKNLAQSQIHPRDSRCLVVQLTPAGKKLLLKLDTQQNQLFQEILAQLTPAQTSQIEEALMLYNQAVHNAKHQSGCHIRQATAQDDAAIAKVIRDVSAEYGLTADKGYSVADPTLDCLSQIYSQAGANYWIIELDGRILGGAGIAPLANNEGVCELQKMYFMPEIRGKGLATRVALMALDFARETGYQSCYLETTAALNEAVKLYEKLGFVHLSAPLGNTGHDACEMPMLLELNQ”, the “soluble on expression in E. coli” value is listed as “not soluble”.
As for “MIIPEYGRTLTPEEWRPVVDEMLEATHIIFTTHENSDGDGLGSQVALALALKALGKEVAIFNPTEVPPNYLFLKELHEINLFRDRDEESMQEFFLADLLVVLDANLHDRIGRLWPHVEFARQMSRLKVLCIDHHLEPEDFADITVCETYASSTGELVCDLVTALELRTGQQLFTPEVASALYAAIMTDTGSFRFPKTTPYTYRLAGMLVEKGADPELVYDRIYNALTPEALKLLGLSLSNIKIIENGLISWLFITQEMLEQTGSKLFDTDLIIRYLLSVPTVKVAVLLVEMQDGRCKVSFRSRGKIYVNQLAKHYGGGGHMNAAGCLLRMSAEKAQLVILEDVRKFTLEQVDS”, the “soluble on expression in E. coli” value was “soluble”.
To “MAGDPMNVNVEDNAKVTLTSQGATKIYKTPSNHVEQYQTFNLKDNAYLEYVADPIIAYENAKFYQHNTFNLNNSSSLFYTDILTPGYSKTGEAFKYQYMHLINEIYIEDELVTYDNLLLNPNKQSINEIGYMEHYSHYGSAYFIHEDVNQKLIDSVYETISSYSNTFDCRVAISQLPTHGFAVRIFAYRTQIIEKILGIIQSYIAENIYDRKLDFLRKYLEHHHHHH” belongs “not soluble”; to “MASSVLEMIKEEVTCPICLELLKEPVSADCNHSFCRACITLNYESNRNTDGKGNCPVCRVPYPFGNLKPNLHVANIVERLKGFKSIPEEEQKVNICAQHGEKLRLFCRKDMMVICWLCERSQEHRGHQTALIEEVDQEYKEKLQGALRKLMKKAKICDEWQDDLQLQRVDWENQIQINVENVQRQFKGLRDLLDSKENEELQKLKKEKKEVMEKLEESENELEDQTELVRDLISDVEHHLQLSTLEMLQGANCVLRRSQSLSLQQPQSVPQKRKRTFQAPDLKGMLQVYQGLMDIQQYWVHMTLHARNNAVIAINKEKRQIQYRSYNTVPVSEIYHLGVLGYPALSSGKHYWEVDISRSDAWLLGLNDGKCAQPQLHSKEEMGIKKNLHSQIKQNVLFQPKCGYWVIGMKNPSVYNAFDECSITHNSSILVISLPDCPSRVGVFLDRKAGTLSFYDVSNCGALIYRFYDPAFPVEVYPYFNPMKCSEPMTICGPPS”, “soluble”; to “SNAMGKKIRTEEVDHLFEAILCLKNKEECYTFFEDVCTINELLSLSQRFEVAKMLTDKRTYLDISEKTGASTATISRVNRSLNYGNDGYEMVFSRMKEKETAGKTEE”, “soluble”.
For the sequence “MGSDKIHHHHHHMSRTTVLRSAESDLTLHGRDAMGTLMRTGTLTNFLKVAQQLDFDPQPLLRKLGLTKEMLADPECLIPGSASVTLLKESARLTQCPTFGLRVAERWQLSDLGVISVLLTHQSTLRDAVGTLIQYRHLLNEFLVIRMEDVGRKVIVREELVADEAGTSIQSTELVLGSLSRLCSTLMGATWHPLSVHFTHDPPPDLRLHRRVFGGKLEFASSFNGMICRAADMDFPNPIADPVMARHARRLLEGLPGAKEPSIVLEVRKAIYLLLPLGRATIEQVAQGLGMNVRMLQRQLESAGMVFSDMVNGVRRDLVIHYMDNKSYTLGRIAQSLGYSAYGSFVRWFAAQFGMTPTRWQSLRQQKEDGRSPIQIHC”, the “soluble on expression in E. coli” value is recorded as “not soluble”.
Take “NVDKAIKFGQIQNKAVTLGQGGFFNDDFSDGQAGVHYPDLDNAEPMPESEKLQYEKRLVGFYLSHHPLDRFRRDWEAFASLTLDKRDVTPSKL”: the “soluble on expression in E. coli” value is “not soluble”.
To “MHTPVTIIGAGLGGLTLARVLHVHAIPVTVYEADSSPSARAQGGLLDIHDYNGQLAVEAAGLTDEFRAIVLEGRQALRVLDPDGTVRLDRADDGTGGRPEVQRGDLRQILLDSLPAGTVRWGHKVSRARPLGDGRHEVTFADGGTVVTRLLVGADGAWSRVRPLLSSATPEYVGKSVVETYLFDAGTRHPVAAKTVGGGMLIAPAPGKEIFAHREKDDTLHAYVGLSRPLDWFAGIDFTDGAAATARIAREFDGWATELTALITDTDVAPALRALHALPAGHRWERVPGVTLLGDAAHLAAPNGEGANLAMLDGAELGTALAAHPGDVEAALAEYERAMFPRSAEAAGDDMIGMDSPDNTAQGLIDLITENGGLEHHHHHH” belongs “soluble”; to “MGSDKIHHHHHHMEFSPQQDEALQAVARWLQAGKPQLFRLFGYAGTGKTTLARYFAEHVDGQVQFAAFTGKAAQVLRSKGAVNARTIHSLIYRPKGEESVEDEVTGKTSMSPTFSLNRQSPISRAKLVVIDECSMVDEQLGRDLMSFGTPILVLGDPGQLPPISGGGFFTDHEPDFLLTEIHRQARDNPILRLALDVREGREFMRGDYGTAQVIGKEDVTQELVLKADQVLVGTNRTRRRYNQRLRELKGFNADYPQAGDKLVCLRNDPAKGLLNGSLWKVMTSSRETVKPGINLLVSPEEDDPDRGVAKIKLLKAAFEDPDADIPWQQKKRFDDFDYGYALTVHKAQGSQWNEIVLFDESWAFKETRQRWLYTAITRAAERLTIVR”, “not soluble”.
Then “MSLAHYKKFRLSTLAAVVGIVLAVGPENSYAEAPIQFNTRFLDVKDDASLDLSRFSRKGYIMPGSYHLQVLVNQSQIVQDNVITYSVDNNDPDNTYPCLSPELVSLLGLKPEIADKMIWINAGQCLQPDQLEGMETQTDLSQSTLTVIIPQAYLEYSDEEWDPPSRWDEGIPGVLFDYNVNSQWRHAEHDDGDEYDISGNGTVGANLGAWRLRADWQANYRHENDSEDKDNFGSSSEQNWDWNRYYAWRAIPQLRAQLTLGEGSLESDIFDGFNYVGGSLITDDQMLPPNLRGYAPDISGVARTNAKVTVTQRGRVIYESQVPAGPFRIQDINETVSGDLHVKIEEQSGQVQEYDVSTASIPFLTRPGQVRYKLAAGRPQDWDHNMEGGFFTSAEASWGIANGWSLYGGAIGEQDYQALALGLGRDLALLGAFSVDVTHSRATLPEGSAYGDGTIQGNSFRASYAKDFDDIDSRLTFAGYRFSEENYMTMDEFIDTHNDDNDRQRTGHDKEMYTLTYSQNFSAINVNAYINYTHRTYWNQPNQDSYNLTLSHYFDVGEVRGISLSVNGFRNEYDNERDDGVYVSLSIPWGNNRTLSYNGSFSDDNNSNQVGYYERIDDRNNYQINAGRADNGATLDGYYRYQASYADIDVSANYQEGDYTSGGLNIQGGATLTAKGGALHRTSVNGGSRLLVDVGDEANVPISGYSTPVYTNAFGKAVIVDVNDYYRNQVKIDITQLPEDAEAILSIAQATLTEGAIGYRRMEVLSGKKAMASIRLRDGGTPPFGAEVYNSRQQQLGIVGEDGSVYLIGINPGERLQVTWEGKTQCEATLPDPLPGDLFSGLLLPCIGDASSPEATQPEEKPLLQLHTQRRTSSTQPEALSSRYPTHEGGSHHHHHH”, with “soluble”.
With “MKEDWPEPVKEYNTGQVLFDRLELTRTNEEENLAVWDMIAWYGGDYHRAVFKSEGENVQDDGEPTDLERAELLYGYLVSPFWSFQAGIGTRGTLSSDASMENYAVVSFMGLAPYWFEMDNSLMVNEEGDVQFVSETEYEWQLTQTSYLQPRIELTANLTDSDKYERQSGLSNLRVGLRYRHEISREFAPYIGVYWNGALGNTADEMKRMGKDTTETGVVLGARVWFLEHHHHHH”, the “soluble on expression in E. coli” value is on record as “not soluble”.
Then “SSQTGEKGKFPDAAGYVGFANLPNQVHRKSVKKGFEFTLMVVGESGLGKSTLINSLFLTDLYPERYIPGAAEKIERTVQIEASTVEIEERGVKLRLTVVDTPGYGDAINSQDCFKTIIQYIDNQFERYLHDESGLNRRHIVDNRVHCCFYFISPFGHGLKPLDVEFMKAIHSKVNIVPVIAKADTLTLKERDRLKRRILDEISEHGIRIYQLPDADSDEDEEFKDFVPNRCIWSSLQFYQMHIIAITFIDIMFVFKKAAHVISTTIIMVKLNIKCQ”, with “soluble”; and “GMSISSKAKEILTQFTREVWSEGNIEASDKYIAPKYTVLHDPGDPWEGRELDVAGYKERVKTLRAAFPDQCFDIQGLFADGDAVVMTWLWTATHKEDIPGFPSTGKQIKMSGATVYYFDGNRLTGHWQITDRLGVYQQLRQAAAGA”, with “soluble”.
To “GPGSMGKYAAVIIGPAGSGKSTLCGVLAEHYATMGRSTHIANMDPAADLLPYEPSMDIRDLISLEDAMEGKGLGPNGGLVFCMEYLVTAGATWVSQQLGDYADDFIIVDMPGQVEVLSNQPAVPAFVRLLQQEGYYTTVLYLLDALATTADSGKFISGCMFSLSSMVCFDCPFINVLTKCDLLSKDFKENGMLEHFCMCDFDYMDLSRLPPRFRAMSRQIGALLTDFNLVTFRPVDIEDVGYVSNLCSVLDETLQVADEAEVQDHDLGDN” belongs “soluble”.
To “MGSSHHHHHHSSGLVPRGSHGLVPRGSHMKKLKLHGFNNLTKSLSFCIYDICYAKTAEERDGYIAYIDELYNANRLTEILSETCSIIGANILNIARQDYEPQGASVTILVSEEPVDPKLIDKTEHPGPLPETVVAHLDKSHICVHTYPESHPEGGLCTFRADIEVSTCGVISPLKALNYLIHQLESDIVTIDYRVRGFTRDINGMKHFIDHEINSIQNFMSDDMKALYDMVDVNVYQENIFHTKMLLKEFDLKHYMFHTKPEDLTDSERQEITAALWKEMREIYYGRNMPAV” belongs “soluble”.
